Results published in patent publication US20260263646A1 (ENLAZA THERAPEUTICS, published 2026).
Read-outs that look alike come from different tables or passages of the source. [ ]: non-standard residue; d: D form. Tyr(SO2F) = N[C@@H](Cc1ccc(OS(=O)(=O)F)cc1)C(=O)O

What was measured:
HER2 on BT-474 cells [1] = target: T1, HER2 on BT-474 cells (human, UniProt P04626 23-1255); assay: cell-based or functional assay
HER2 on BT-474 cells [2] = target: T1, HER2 on BT-474 cells; assay: flow cytometry on BT-474 cells, pH 6.0
PSMA on PC3pip cells [3] = target: T2, PSMA on PC3pip cells (UniProt Q04609 1-750, limits assumed); assay: cell-based or functional assay
PSMA on PC3pip cells [4] = target: T2, PSMA on PC3pip cells; assay: cell-based or functional assay; remark: listed apart in the source
PSMA on LNCaP cells [5] = target: T3, PSMA on LNCaP cells (human, UniProt Q04609 1-750); assay: western blot, LNCaP cells, 100.0 nM, 6 h
T3 construct: whole, on cells; also called LNCaP (PSMA+)

PSMA on LNCaP cells [6] = target: T3, PSMA on LNCaP cells; assay: western blot, LNCaP cells, 1.0 nM, 1 h
PSMA on LNCaP cells [7] = target: T3, PSMA on LNCaP cells; assay: western blot, LNCaP cells, 0.1 nM, 1 h
PSMA on LNCaP cells [8] = target: T3, PSMA on LNCaP cells; assay: western blot, LNCaP cells, 1000.0 nM, 6 h
PSMA on LNCaP cells [9] = target: T3, PSMA on LNCaP cells; assay: western blot, LNCaP cells, 100.0 nM, 1 h
PSMA on LNCaP cells [10] = target: T3, PSMA on LNCaP cells; assay: western blot, LNCaP cells, 10.0 nM, 1 h
PSMA on LNCaP cells [11] = target: T3, PSMA on LNCaP cells; assay: western blot, LNCaP cells, 1.0 nM, 6 h
PSMA on LNCaP cells [12] = target: T3, PSMA on LNCaP cells; assay: western blot, LNCaP cells, 10.0 nM, 6 h
PSMA on LNCaP cells [13] = target: T3, PSMA on LNCaP cells; assay: western blot, LNCaP cells, 1000.0 nM, 1 h
PSMA on LNCaP cells [14] = target: T3, PSMA on LNCaP cells; assay: western blot, LNCaP cells, 0.1 nM, 6 h
[15] = target: T4, Fc-tagged Her2 (Acrobiosystem #HER2-H5253) (UniProt P04626 23-652); assay: SDS-PAGE time course
T4 construct: also called Her2-Fc; FcHer2

[16] = target: T5, PSMA (commercial, Sino Bio cat #15877-H07H) (UniProt Q04609 44-750); assay: SDS-PAGE time course, 37C
T5 construct: also called receptor

[17] = target: T6, PSMA with a Fc tag (Acrobiosystem PSA-H5264) (UniProt Q04609 44-750); assay: biolayer interferometry, PSMA-Fc on AHC sensor
T6 construct: Printed 'Fe tag'; captured on AHC sensors; also called PSMA with a Fe tag

PSMA on LNCaP cells [18] = target: T3, PSMA on LNCaP cells; assay: flow cytometry on LNCaP cells
PSMA on LNCaP cells [19] = target: T3, PSMA on LNCaP cells; assay: flow cytometry on LNCaP cells; remark: listed apart in the source

T3 sequence (Q04609 whole entry): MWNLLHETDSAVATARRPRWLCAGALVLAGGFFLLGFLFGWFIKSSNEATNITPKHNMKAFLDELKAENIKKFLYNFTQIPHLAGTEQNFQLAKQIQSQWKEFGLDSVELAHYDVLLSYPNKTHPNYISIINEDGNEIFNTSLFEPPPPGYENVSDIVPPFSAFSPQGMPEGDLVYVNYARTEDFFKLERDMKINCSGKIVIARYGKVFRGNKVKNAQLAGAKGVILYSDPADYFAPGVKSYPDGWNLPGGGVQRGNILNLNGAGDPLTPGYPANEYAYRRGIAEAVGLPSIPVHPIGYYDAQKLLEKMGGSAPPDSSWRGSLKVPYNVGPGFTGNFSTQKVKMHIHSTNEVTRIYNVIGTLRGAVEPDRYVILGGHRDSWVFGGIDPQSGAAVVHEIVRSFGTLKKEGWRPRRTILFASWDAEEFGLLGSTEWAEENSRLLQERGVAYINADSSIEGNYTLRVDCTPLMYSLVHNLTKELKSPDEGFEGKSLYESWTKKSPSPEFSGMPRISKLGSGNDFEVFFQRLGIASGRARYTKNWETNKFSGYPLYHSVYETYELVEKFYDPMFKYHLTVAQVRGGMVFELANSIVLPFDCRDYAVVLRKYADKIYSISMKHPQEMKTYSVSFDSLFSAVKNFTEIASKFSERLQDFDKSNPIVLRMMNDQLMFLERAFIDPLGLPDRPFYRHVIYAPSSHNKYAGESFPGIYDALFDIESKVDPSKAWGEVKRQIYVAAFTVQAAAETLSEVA
T2 sequence (Q04609 whole entry): as above
T5 sequence (Q04609 44-750 limits assumed): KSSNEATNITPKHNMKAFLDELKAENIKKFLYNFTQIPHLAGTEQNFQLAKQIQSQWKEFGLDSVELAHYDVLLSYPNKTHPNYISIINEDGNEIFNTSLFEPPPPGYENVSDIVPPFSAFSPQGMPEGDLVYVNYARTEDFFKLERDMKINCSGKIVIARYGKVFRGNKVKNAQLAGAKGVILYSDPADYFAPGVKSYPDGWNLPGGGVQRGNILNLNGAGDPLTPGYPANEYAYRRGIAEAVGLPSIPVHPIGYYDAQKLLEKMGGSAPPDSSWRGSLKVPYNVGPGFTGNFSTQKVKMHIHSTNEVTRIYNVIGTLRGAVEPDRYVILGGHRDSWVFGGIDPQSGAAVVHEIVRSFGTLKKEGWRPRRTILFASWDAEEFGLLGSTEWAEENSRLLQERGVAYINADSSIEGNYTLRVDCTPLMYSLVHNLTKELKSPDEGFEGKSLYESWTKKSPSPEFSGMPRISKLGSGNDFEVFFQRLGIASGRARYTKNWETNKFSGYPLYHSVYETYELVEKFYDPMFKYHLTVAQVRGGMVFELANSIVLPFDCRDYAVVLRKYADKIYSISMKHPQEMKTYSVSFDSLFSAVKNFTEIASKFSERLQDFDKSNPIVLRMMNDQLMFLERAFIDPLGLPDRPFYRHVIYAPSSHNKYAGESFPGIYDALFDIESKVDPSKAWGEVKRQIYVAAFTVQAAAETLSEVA
T6 sequence (Q04609 44-750 limits assumed): as above

B1: C33-54TYR (VHH)
VHH: QVQLQESGGGSVQAGGSLKLTCAASGYIFNSCGMGWYRQSPGRERELVSRISGYGDTWHKESVKGRFTISQDNVKKTLYLQMNSLKPEDTAVYFCAVCYNLETYWGQGTQVTVSS
modifications: PEG8-vc-PABC-MMAE on the C-terminal GGG
HER2 on BT-474 cells [1]
  IC50 (nM) - 5 h, BT474 viability after 5 h washout: 21.6 nM
  IC50 (nM) - 6 days, BT474 viability, continuous exposure: 0.328 nM
HER2 on BT-474 cells [2]
  EC50: 2.5 nM

B2: C33-52TYR (VHH)
VHH: QVQLQESGGGSVQAGGSLKLTCAASGYIFNSCGMGWYRQSPGRERELVSRIYGDGDTWHKESVKGRFTISQDNVKKTLYLQMNSLKPEDTAVYFCAVCYNLETYWGQGTQVTVSS
modifications: PEG8-vc-PABC-MMAE on the C-terminal GGG, by sortase ligation
HER2 on BT-474 cells [1]
  IC50 (nM) - 5 h, BT474 viability after 5 h washout: > 100 nM
  IC50 (nM) - 6 days, BT474 viability, continuous exposure: 8.42 nM
HER2 on BT-474 cells [2]
  EC50: 160 nM

B3: C28-101FSY (VHH)
VHH: QVQLQESGGGSVEAGGSLRLSCARSGWPYSTYSMNWFRQAPGKEREAVAGISSTMSGIIFAESKAGQFTISQDNAKNTVYLQMNNLKPEDTAIYYCAARRXFSLSSSSDDFDYWGQGTQVTVSS
modifications: FSY at 101 (X of the entry); MC-PEG8-VC-PABC-MMAE on the C-terminal Cys
PSMA on PC3pip cells [3]
  IC50 PC3pip (M), cell viability by CellTiter-Glo after 4 days: 1.8e-10 M
PSMA on PC3pip cells [4]
  fold potency against C28-101TYR: > 400 fold

B4: C24-101FSY (VHH)
VHH: QVQLQESGGGSVEAGGSLRLSCARSGWPYSTYSMNWFRQAPGKEREAVAGISSTMSGIIFAESKAGQFTISQDNAKNTVYLQMNNLKPEDTAIYYCAARRXFSLSSSSDDFDYWGQGTQVTVSS
modifications: FSY at 101 (X of the entry)
notes: also called C24-FSY
PSMA on LNCaP cells [5]
  Crosslinked PSMA (Total PSMA %): 71%
PSMA on LNCaP cells [6]
  Crosslinked PSMA (Total PSMA %): 0%
PSMA on LNCaP cells [7]
  Crosslinked PSMA (Total PSMA %): 0%
PSMA on LNCaP cells [8]
  Crosslinked PSMA (Total PSMA %): 75.8%
PSMA on LNCaP cells [9]
  Crosslinked PSMA (Total PSMA %): 28.5%
PSMA on LNCaP cells [10]
  Crosslinked PSMA (Total PSMA %): 4.6%
PSMA on LNCaP cells [11]
  Crosslinked PSMA (Total PSMA %): 2.4%
PSMA on LNCaP cells [12]
  Crosslinked PSMA (Total PSMA %): 28.4%
PSMA on LNCaP cells [13]
  Crosslinked PSMA (Total PSMA %): 41.4%
PSMA on LNCaP cells [14]
  Crosslinked PSMA (Total PSMA %): 0%

B5: C38-FSY (designed binder)
chain: MDLGKKLLEAARAGQDDEVRILMANGADVNAHDFYGITPLHLAANFGHLEIVEVLLKHGADVNAF[Tyr(SO2F)]YDNTPLHLAADAGHLEIVEVLLKYGADVNASDRDGHTPLHLAAREGHLEIVEVLLKNGADVNAQDKFGKTAFDISIDNGNEDLAEILQKLGGGGSRSDLGKKLLEAARAGQDDEVRILMANGADVNAKDEYGLTPLYLATAHGHLEIVEVLLKNGADVNAVDAIGFTPLHLAAFIGHLEIAEVLLKHGADVNAQDKFGKTAFDISIGNGNEDLAEILQKLNGS
notes: also called C15-66FSY-C16; biparatopic DARPin
[15]
  crosslinking: 50%

B6: C39-102FSY (VHH)
VHH: QVQLQESGGGSVQAGGSLRLSCTAPGYTDSNYYMSWFRQAPGKEREWVAGVNTGRGSTSYADSVKGRFTISQDNAKNTMFLQMNSLKPEDTAIYYCAVAAAXFADSLPKTQDEYILWGQGTQVTVSS
modifications: FSY at 102 (X of the entry)
notes: pelB leader cleaved off; also called C1-C101A/C104A/H102(FSY); C39-FSY C1
[16]
  t1/2 maximum crosslinking: ~60 min

B7: C36-FSY (bispecific antibody)
chain: QVQLQESGGGSVEAGGSLRLSCARSGWPYSTYSMNWFRQAPGKEREAVAGISSTMSGIIFAESKAGQFTISQDNAKNTVYLQMNNLKPEDTAIYYCAARRXFSLSSSSDDFDYWGQGTQVTVSSGGGGSGGGGSGGGGSQVQLQESGGGSVEAGGSLRLSCARSGWPYSTYSMNWFRQAPGKEREAVAGISSTMSGIIFAESKAGQFTISQDNAKNTVYLQMNNLKPEDTAIYYCAARRXFSLSSSSDDFDYWGQGTQVTVSSAAAYPYDVPDYGSLPETGGSPSTPPTPSPSTPP
modifications: FSY at both X of the entry (101 of each C24 part)
notes: Tandem of two copies of the same VHH
PSMA on LNCaP cells [5]
  Crosslinked PSMA (Total PSMA %): 87.9%
PSMA on LNCaP cells [6]
  Crosslinked PSMA (Total PSMA %): 13.8%
PSMA on LNCaP cells [7]
  Crosslinked PSMA (Total PSMA %): 3.8%
PSMA on LNCaP cells [8]
  Crosslinked PSMA (Total PSMA %): 92%
PSMA on LNCaP cells [9]
  Crosslinked PSMA (Total PSMA %): 82.7%
PSMA on LNCaP cells [10]
  Crosslinked PSMA (Total PSMA %): 58.7%
PSMA on LNCaP cells [11]
  Crosslinked PSMA (Total PSMA %): 23.7%
PSMA on LNCaP cells [12]
  Crosslinked PSMA (Total PSMA %): 74.2%
PSMA on LNCaP cells [13]
  Crosslinked PSMA (Total PSMA %): 90.3%
PSMA on LNCaP cells [14]
  Crosslinked PSMA (Total PSMA %): 2.8%

B8: C40-102FSY (bispecific antibody)
chain: QVQLQESGGGSVQAGGSLRLSCTAPGYTDSNYYMSWFRQAPGKEREWVAGVNTGRGSTSYADSVKGRFTISQDNAKNTMFLQMNSLKPEDTAIYYCAVAAAXFADSLPKTQDEYILWGQGTQVTVSSAAAYPYDVPDYGSGGGGSGGGGSQVQLQESGGGSVQAGGSLRLSCTAPGYTDSNYYMSWFRQAPGKEREWVAGVNTGRGSTSYADSVKGRFTISQDNAKNTMFLQMNSLKPEDTAIYYCAVAAAHFADSLPKTQDEYILWGQGTQVTVSSAAAYPYDVPDYGSHHHHHH
modifications: FSY at 102 of the first sdAb
notes: also called C40-FSY; C1-C101A/C104A/H102(FSY)-L1-C1-C39
[16]
  fold crosslinking rate against C39-102FSY: 2 fold
  t1/2 maximum crosslinking: ~30 min

B9: C26-54FSY (VHH)
VHH: EVQLVESGGGLVQPGGSLTLSCAASRFMISEYSMHWVRQAPGKGLEWVSTINPXGTTDYAESVKGRFTISRDNAKNTLYLQMNSLKPEDTAVYYCDGYGYRGQGTQVTVSS
modifications: FSY at 54 (X of the entry); MC-PEG8-VC-PABC-MMAE on the C-terminal Cys
PSMA on PC3pip cells [3]
  IC50 PC3pip (M), cell viability by CellTiter-Glo after 4 days: 9.39e-10 M
PSMA on PC3pip cells [4]
  fold potency against C26-54TYR: 3.57 fold

B10: C2-54TYR (VHH)
VHH: EVQLVESGGGLVQPGGSLTLSCAASRFMISEYSMHWVRQAPGKGLEWVSTINPYGTTDYAESVKGRFTISRDNAKNTLYLQMNSLKPEDTAVYYCDGYGYRGQGTQVTVSS
notes: C2 sdAb with tyrosine at position 54; also called C2-TYR
[17]
  Kd: 9.1 nM
PSMA on LNCaP cells [18]
  EC50: 6.75 nM

B11: C2-54FSY (VHH)
VHH: EVQLVESGGGLVQPGGSLTLSCAASRFMISEYSMHWVRQAPGKGLEWVSTINPXGTTDYAESVKGRFTISRDNAKNTLYLQMNSLKPEDTAVYYCDGYGYRGQGTQVTVSS
modifications: FSY at 54
notes: also called C2-A54(FSY); C2-FSY
PSMA on LNCaP cells [19]
  EC50: 12.2 nM
[17]
  Kd: 10.9 nM

B12: C34-FSY (bispecific antibody)
chain: EVQLVESGGGLVQPGGSLTLSCAASRFMISEYSMHWVRQAPGKGLEWVSTINPYGTTDYAESVKGRFTISRDNAKNTLYLQMNSLKPEDTAVYYCDGYGYRGQGTQVTVSSGGGGSGGGGSGGGGSQVQLQESGGGSVEAGGSLRLSCARSGWPYSTYSMNWFRQAPGKEREAVAGISSTMSGIIFAESKAGQFTISQDNAKNTVYLQMNNLKPEDTAIYYCAARRXFSLSSSSDDFDYWGQGTQVTVSSAAAYPYDVPDYGSLPETGGSPSTPPTPSPSTPP
modifications: FSY at the X of the entry (101 of the C24 part)
notes: Biparatopic tandem of two anti-PSMA VHH
PSMA on LNCaP cells [5]
  Crosslinked PSMA (Total PSMA %): 87.1%
PSMA on LNCaP cells [6]
  Crosslinked PSMA (Total PSMA %): 14.8%
PSMA on LNCaP cells [7]
  Crosslinked PSMA (Total PSMA %): 0%
PSMA on LNCaP cells [8]
  Crosslinked PSMA (Total PSMA %): 89.9%
PSMA on LNCaP cells [9]
  Crosslinked PSMA (Total PSMA %): 63.3%
PSMA on LNCaP cells [10]
  Crosslinked PSMA (Total PSMA %): 56.9%
PSMA on LNCaP cells [11]
  Crosslinked PSMA (Total PSMA %): 21.5%
PSMA on LNCaP cells [12]
  Crosslinked PSMA (Total PSMA %): 78.7%
PSMA on LNCaP cells [13]
  Crosslinked PSMA (Total PSMA %): 70.4%
PSMA on LNCaP cells [14]
  Crosslinked PSMA (Total PSMA %): 3.2%
